Measurements: article PMC6884549, “Alkyladenine DNA glycosylase associates with transcription elongation to coordinate DNA repair with gene expression” (Nature Communications, 2019)

B1: FLAG-tagged ELP1, purified recombinant (natural protein, human, UniProt O95163 1-1332, looked up)
chain: MRNLKLFRTLEFRDIQGPGNPQCFSLRTEQGTVLIGSEHGLIEVDPVSREVKNEVSLVAEGFLPEDGSGRIVGVQDLLDQESVCVATASGDVILCSLSTQQLECVGSVASGISVMSWSPDQELVLLATGQQTLIMMTKDFEPILEQQIHQDDFGESKFITVGWGRKETQFHGSEGRQAAFQMQMHESALPWDDHRPQVTWRGDGQFFAVSVVCPETGARKVRVWNREFALQSTSEPVAGLGPALAWKPSGSLIASTQDKPNQQDIVFFEKNGLLHGHFTLPFLKDEVKVNDLLWNADSSVLAVWLEDLQREESSIPKTCVQLWTVGNYHWYLKQSLSFSTCGKSKIVSLMWDPVTPYRLHVLCQGWHYLAYDWHWTTDRSVGDNSSDLSNVAVIDGNRVLVTVFRQTVVPPPMCTYQLLFPHPVNQVTFLAHPQKSNDLAVLDASNQISVYKCGDCPSADPTVKLGAVGGSGFKVCLRTPHLEKRYKIQFENNEDQDVNPLKLGLLTWIEEDVFLAVSHSEFSPRSVIHHLTAASSEMDEEHGQLNVSSSAAVDGVIISLCCNSKTKSVVLQLADGQIFKYLWESPSLAIKPWKNSGGFPVRFPYPCTQTELAMIGEEECVLGLTDRCRFFINDIEVASNITSFAVYDEFLLLTTHSHTCQCFCLRDASFKTLQAGLSSNHVSHGEVLRKVERGSRIVTVVPQDTKLVLQMPRGNLEVVHHRALVLAQIRKWLDKLMFKEAFECMRKLRINLNLIYDHNPKVFLGNVETFIKQIDSVNHINLFFTELKEEDVTKTMYPAPVTSSVYLSRDPDGNKIDLVCDAMRAVMESINPHKYCLSILTSHVKKTTPELEIVLQKVHELQGNAPSDPDAVSAEEALKYLLHLVDVNELYDHSLGTYDFDLVLMVAEKSQKDPKEYLPFLNTLKKMETNYQRFTIDKYLKRYEKAIGHLSKCGPEYFPECLNLIKDKNLYNEALKLYSPSSQQYQDISIAYGEHLMQEHMYEPAGLMFARCGAHEKALSAFLTCGNWKQALCVAAQLNFTKDQLVGLGRTLAGKLVEQRKHIDAAMVLEECAQDYEEAVLLLLEGAAWEEALRLVYKYNRLDIIETNVKPSILEAQKNYMAFLDSQTATFSRHKKRLLVVRELKEQAQQAGLDDEVPHGQESDLFSETSSVVSGSEMSGKYSHSNSRISARSSKNRRKAERKKHSLKEGSPLEDLALLEALSEVVQNTENLKDEVYHILKVLFLFEFDEQGRELQKAFEDTLQLMERSLPEIWTLTYQQNSATPVLGPNSTANSIMASYQQQKTSVPVLDAELFIPPKINRRTQWKLSLLD
notes: ELP1 (IKBKAP), cDNA excised from pCMV6-XL5-ELP1 (OriGene) and inserted into pcDNA3.1(+)-3xFLAG; Seen as a dimer after BS3 cross-linking; Purified in one step from human cells, so other Elongator subunits might be present (my surmise); also called FLAG-ELP1; ELP1 dimer

Key:
[1] = molecular target: the molecule itself; assay: cross-linking; 10 µM of purified proteins in 0.1 M sodium phosphate, 0.15 M NaCl, pH 7.4, 30 min at RT; BS3 at 0, 0.1 and 0.5 mM for 1 h at 4 °C; gel shift read by immunoblot; single proteins with the highest amount of BS3 as controls
[2] = molecular target: B1; assay: co-IP; purified proteins: 1 µg of protein with 1 µg of antibody overnight at 4 °C in 200 µl IP buffer (20 mM HEPES pH 7.9, 140 mM NaCl, 0.01% NP-40), Protein-A sepharose beads, immunoblot; conditions: both partners purified

Q: With B1 as the binder, how does the “stoichiometry N” value [1] read?
A: 2

B2: AAG lacking 80 N-terminal amino acids, purified recombinant (domain or fragment, human, UniProt P29372 81-298, looked up)
chain: GHLTRLGLEFFDQPAVPLARAFLGQVLVRRLPNGTELRGRIVETEAYLGPEDEAAHSRGGRQTPRNRGMFMKPGTLYVYIIYGMYFCMNISSQGDGACVLLRALEPLEGLETMRQLRSTLRKGTASRVLKDRELCSGPSKLCQALAINKSFDQRDLAQDEAVWLERGPLEPSEPAVVAAARVGVGHAGEWARKPLRFYVRGSPWVSVVDRVAEQDTQA
notes: Alkyladenine DNA glycosylase (AAG, MPG), human, lacking the first 80 N-terminal amino acids; also called Δ80 AAG; ∆80AAG
Q: Does B2 bind [2]?
A: binds
